Assay results as given in patent US20080267980A1 (published 2008).
Like-named read-outs stand apart in the source and are kept apart here. Each block holds one binder with its values, some of them ahead of it.

Assays:
Assay in all cases: SPR
Human C3dg-biotin [1] = target: T1, Human C3dg-biotin (human, UniProt P01024 955-1303, biotin (site not stated) in the SPR experiments)
Human C3dg-biotin [2] = target: T1, Human C3dg-biotin; remark: listed apart in the source
Human C3dg-biotin [3] = target: T1, Human C3dg-biotin; remark: listed apart in the source
Human C3dg-biotin [4] = target: T1, Human C3dg-biotin; remark: listed apart in the source

T1 sequence (P01024 955-1303): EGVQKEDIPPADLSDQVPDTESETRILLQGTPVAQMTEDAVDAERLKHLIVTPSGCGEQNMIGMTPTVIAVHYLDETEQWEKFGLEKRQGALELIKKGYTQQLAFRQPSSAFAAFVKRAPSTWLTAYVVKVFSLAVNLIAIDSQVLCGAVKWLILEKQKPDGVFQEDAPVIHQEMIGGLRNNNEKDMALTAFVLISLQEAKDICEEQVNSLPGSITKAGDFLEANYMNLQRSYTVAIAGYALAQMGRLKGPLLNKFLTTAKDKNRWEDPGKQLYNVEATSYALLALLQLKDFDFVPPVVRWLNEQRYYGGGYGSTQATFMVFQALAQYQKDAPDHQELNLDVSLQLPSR

Kd (Human C3dg-biotin [1]): 451 nM
B1: CD59-CR2 (other)
chain: LQCYNCPNPTADCKTAVNCSSDFDACLITKAGLQVYNKCWKFEHCNFNDVTTRLRENELTYYCCKKDLCNFNEQLENSSGGGGSGGGGSGGGGSISCGSPPPILNGRISYYSTPIAVGTVIRYSCSGTFRLIGEKSLLCITKDKVDGTWDKPAPKCEYFNKYSSCPEPIVPGGYKIRGSTPYRHGDSVTFACKTNFSMNGNKSVWCQANNMWGPTRLPTCVSVFPLECPALPMIHNGHHTSENVGSIAPGLSVTYSCESGYLLVGEKIINCLSSGKWSAVPPTCEEARCKSLGRFPNGKVKEPPILRVGVTANFFCDEGYRLQGPPSSRC

Kd (Human C3dg-biotin [2]): 2600 nM
B2: DAF-CR2 (other)
chain: DCGLPPDVPNAQPALEGRTSFPEDTVITYKCEESFVKIPGEKDSVICLKGSQWSDIEEFCNRSCEVPTRLNSASLKQPYITQNYFPVGTVVEYECRPGYRREPSLSPKLTCLQNLKWSTAVEFCKKKSCPNPGEIRNGQIDVPGGILFGATISFSCNTGYKLFGSTSSFCLISGSSVQWSDPLPECREIYCPAPPQIDNGIIQGERDHYGYRQSVTYACNKGFTMIGEHSIYCTVNNDEGEWSGPPPECRSSGGGGSGGGGSGGGGSISCGSPPPILNGRISYYSTPIAVGTVIRYSCSGTFRLIGEKSLLCITKDKVDGTWDKPAPKCEYFNKYSSCPEPIVPGGYKIRGSTPYRHGDSVTFACKTNFSMNGNKSVWCQANNMWGPTRLPTCVSVFPLECPALPMIHNGHHTSENVGSIAPGLSVTYSCESGYLLVGEKIINCLSSGKWSAVPPTCEEARCKSLGRFPNGKVKEPPILRVGVTANFFCDEGYRLQGPPSSRCVIAGQGVAWTKMPVC

Kd (Human C3dg-biotin [3]): 15.5 nM
B3: CR2-CD59 (other)
chain: ISCGSPPPILNGRISYYSTPIAVGTVIRYSCSGTFRLIGEKSLLCITKDKVDGTWDKPAPKCEYFNKYSSCPEPIVPGGYKIRGSTPYRHGDSVTFACKTNFSMNGNKSVWCQANNMWGPTRLPTCVSVFPLECPALPMIHNGHHTSENVGSIAPGLSVTYSCESGYLLVGEKIINCLSSGKWSAVPPTCEEARCKSLGRFPNGKVKEPPILRVGVTANFFCDEGYRLQGPPSSRCVIAGQGVAWTKMPVCSGGGGSLQCYNCPNPTADCKTAVNCSSDFDACLITKAGLQVYNKCWKFEHCNFNDVTTRLRENELTYYCCKKDLCNFNEQLEN

Kd (Human C3dg-biotin [4]): 129 nM
B4: CR2-DAF (other)
chain: ISCGSPPPILNGRISYYSTPIAVGTVIRYSCSGTFRLIGEKSLLCITKDKVDGTWDKPAPKCEYFNKYSSCPEPIVPGGYKIRGSTPYRHGDSVTFACKTNFSMNGNKSVWCQANNMWGPTRLPTCVSVFPLECPALPMIHNGHHTSENVGSIAPGLSVTYSCESGYLLVGEKIINCLSSGKWSAVPPTCEEARCKSLGRFPNGKVKEPPILRVGVTANFFCDEGYRLQGPPSSRCVIAGQGVAWTKMPVCGGGSGGGGSDCGLPPDVPNAQPALEGRTSFPEDTVITYKCEESFVKIPGEKDSVICLKGSQWSDIEEFCNRSCEVPTRLNSASLKQPYITQNYFPVGTVVEYECRPGYRREPSLSPKLTCLQNLKWSTAVEFCKKKSCPNPGEIRNGQIDVPGGILFGATISFSCNTGYKLFGSTSSFCLISGSSVQWSDPLPECREIYCPAPPQIDNGIIQGERDHYGYRQSVTYACNKGFTMIGEHSIYCTV
